In patent publication US20150266957A1 (Regeneron, published 2015):

What was measured:
human PROKR1 = human PROKR1 (human, UniProt Q8TCW9 1-393); experiment: cell-based or functional assay
human PROKR2(1-53)-hFc [1] = biological target: T1, human PROKR2(1-53)-hFc (human); experiment: SPR (Biacore 4000), 25 C, antibody captured
T1 construct: also called soluble human PROKR2 (N-terminal portion)
Experimental: (§1) Kinetic experiments were carried out using HBS-EP (10 mM HEPES, 150 mM NaCl, 3 mM EDTA, 0.05% Surfactant P20, pH 7.4) as both the running buffer and the sample buffer. Antigen-antibody association rates were measured by injecting 2 concentrations (25 and 100 nM) of both human PROKR1 (1-62)-hFc (SEQ ID NO:179) and human PROKR2(1-53)-hFc (SEQ ID NO:180) over the captured antibody surface. Antibody-antigen association was monitored for 90 seconds while dissociation was monitored for 360 seconds. Kinetic on-rate (kₐ) and off-rate (kd) constants were determined from the data using Scrubber software version 2.0 c. Binding dissociation equilibrium constants (KD) and dissociative half-lives (t 1/2) were calculated from the kinetic rate constants as: KD=kd/kₐ and t 1/2=ln(2)/kd.

human PROKR2 = biological target: T2, human PROKR2 (human, UniProt Q8NFJ6 1-384); experiment: flow cytometry, HEK293 cells expressing the target
T2 construct: Expressed on engineered HEK293 or CHO cells; also called hPROKR2; prokineticin receptor 2
T2 sequence (Q8NFJ6 whole entry): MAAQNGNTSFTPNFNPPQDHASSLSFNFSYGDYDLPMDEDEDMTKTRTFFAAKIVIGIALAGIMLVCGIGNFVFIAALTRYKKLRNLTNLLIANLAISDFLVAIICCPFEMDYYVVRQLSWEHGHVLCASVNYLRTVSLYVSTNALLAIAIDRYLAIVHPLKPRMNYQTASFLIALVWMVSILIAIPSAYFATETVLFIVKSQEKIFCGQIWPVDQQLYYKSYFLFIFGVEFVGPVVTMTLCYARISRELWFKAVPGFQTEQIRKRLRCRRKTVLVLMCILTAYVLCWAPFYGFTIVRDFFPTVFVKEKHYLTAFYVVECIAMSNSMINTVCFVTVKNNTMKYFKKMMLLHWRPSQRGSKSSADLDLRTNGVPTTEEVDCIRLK
Experimental: Anti-PROKR antibodies generated in accordance with Example 1 were tested for the ability to bind to human, mouse, and monkey PROKR1 and PROKR2. For these experiments, HEK293 cells were engineered to express: human PROKR1; human PROKR2; mouse PROKR1; mouse PROKR2; cynomolgus monkey PROKR1; or cynomolgus monkey PROKR2. Binding of anti-human PROKR antibodies to the PROKR-expressing cell lines was measured by flow cytometry.
Adherent cells were collected using 1 mM EDTA in PBS, then washed, and re-suspended in cold PBS containing 5% FBS. For the binding experiments, each anti-PROKR antibody was added to 250,000 cells in 500 μl of PBS with 5% FBS (final antibody concentration of 13 nM). After incubation for 20 minutes at room temperature, the cells were washed with PBS containing 5% FBS. A secondary antibody, recognizing either human (Jackson Immuno Research, #115-135-205) or mouse Fc (BD Pharmigen, #550826) and conjugated to allophycyanin, was then added to the cell mixture at a final concentration of 13.3 nM. After incubating for 20 minutes on ice, the cells were washed and resuspended in PBS containing 5% FBS and then sorted and analyzed on a FACSCalibur (BD Biosciences) flow cytometer to determine relative binding by the candidate antibodies. The cell samples containing secondary antibody alone were used as negative control for FACS gating. Histograms of cells stained with anti-human PROKR antibodies were compared with cells stained with secondary alone. […] ND=not determined.

human PROKR1 (1-62)-hFc = biological target: T3, human PROKR1 (1-62)-hFc (human); experiment: SPR (Biacore 4000), 25 C, antibody captured, antigen injected at 25 and 100 nM
T3 construct: also called soluble human PROKR1 (N-terminal portion)
T3 sequence (chain, as listed by the source limits assumed): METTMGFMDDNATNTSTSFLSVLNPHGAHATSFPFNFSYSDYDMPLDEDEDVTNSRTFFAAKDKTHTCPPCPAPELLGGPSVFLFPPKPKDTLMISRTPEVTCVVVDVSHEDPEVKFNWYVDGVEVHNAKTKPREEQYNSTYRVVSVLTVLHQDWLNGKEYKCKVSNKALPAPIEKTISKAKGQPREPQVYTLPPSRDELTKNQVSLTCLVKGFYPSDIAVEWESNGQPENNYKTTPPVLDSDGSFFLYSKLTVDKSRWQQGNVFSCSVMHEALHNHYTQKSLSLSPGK
Experimental: as §1

mouse PROKR1 = mouse PROKR1 (mouse (Mus musculus), UniProt Q9JKL1 1-393); experiment: cell-based or functional assay
mouse PROKR1, sequence (Q9JKL1 whole entry): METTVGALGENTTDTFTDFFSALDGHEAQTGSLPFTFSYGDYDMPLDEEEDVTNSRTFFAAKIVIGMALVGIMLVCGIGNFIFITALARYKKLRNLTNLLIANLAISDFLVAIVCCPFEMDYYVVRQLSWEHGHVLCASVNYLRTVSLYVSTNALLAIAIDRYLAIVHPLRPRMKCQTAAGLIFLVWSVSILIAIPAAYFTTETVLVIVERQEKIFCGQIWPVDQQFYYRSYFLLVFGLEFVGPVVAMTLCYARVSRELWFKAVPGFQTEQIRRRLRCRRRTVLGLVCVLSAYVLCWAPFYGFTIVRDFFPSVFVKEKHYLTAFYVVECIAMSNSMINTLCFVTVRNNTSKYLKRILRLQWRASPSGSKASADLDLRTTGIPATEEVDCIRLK

human PROKR2(1-53)-hFc [2] = biological target: T1, human PROKR2(1-53)-hFc; experiment: SPR (Biacore 4000), 25 C, antibody captured, antigen injected at 25 and 100 nM
Experimental: as §1

human PROKR1, sequence (Q8TCW9 whole entry): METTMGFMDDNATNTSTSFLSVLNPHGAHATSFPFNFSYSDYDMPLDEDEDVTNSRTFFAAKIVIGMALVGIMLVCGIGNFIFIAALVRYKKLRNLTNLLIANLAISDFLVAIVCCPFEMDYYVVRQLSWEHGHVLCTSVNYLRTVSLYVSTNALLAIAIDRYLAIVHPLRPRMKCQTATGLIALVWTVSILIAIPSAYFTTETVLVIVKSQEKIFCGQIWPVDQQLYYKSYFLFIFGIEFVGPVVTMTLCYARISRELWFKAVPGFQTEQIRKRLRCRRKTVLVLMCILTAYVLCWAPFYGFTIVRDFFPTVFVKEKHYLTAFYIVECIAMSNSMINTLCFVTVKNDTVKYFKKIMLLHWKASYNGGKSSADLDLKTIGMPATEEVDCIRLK

Binder	Block (%), calcium flux, hPROKR1 + PK1 (20 nM hPK1) (human PROKR1) [%]	IC50 (nM), inhibition of calcium flux, hPROKR1 + PK1 (20 nM hPK1) (human PROKR1) [nM]	binding result (human PROKR2)	Kd (human PROKR1 (1-62)-hFc) [nM]	koff (human PROKR1 (1-62)-hFc) [s⁻¹]	kon (human PROKR1 (1-62)-hFc) [M⁻¹ s⁻¹]	t½ (human PROKR1 (1-62)-hFc) [min]	Block (%), calcium flux, mPROKR1 + PK1 (1 nM hPK1) (mouse PROKR1) [%]	Kd (human PROKR2(1-53)-hFc [2]) [nM]	koff (human PROKR2(1-53)-hFc [2]) [s⁻¹]	kon (human PROKR2(1-53)-hFc [2]) [M⁻¹ s⁻¹]	t½ (human PROKR2(1-53)-hFc [2]) [min]	binding result (human PROKR2(1-53)-hFc [1])
H4H6706P (antibody, human IgG4, V domains shown) VH: EVQLVESGGGLIKPGGSLRLSCAASGFTFSNAWMSWVRQAPGKGLEWVGRIKRKSDGGTTDYAAPVKGRFTISRDDSKNTMYLQMNSLKTEDTAVYYCTPSGSYYGYWGQGTLVTVSS VL: not shown	59.1	11.2	no binding	1.09	0.000213	196000	54						no binding (tested: 25 and 100 nM antigen injected)
H4H6669P (antibody, human IgG4, V domains shown) VH: EVQLVESGGGLVKPGGSLRLSCAASGFTFSNAWMTWVRQAPGKGLEWVGRIKRKNDGGTIDYAAPVKGRFTISRDDSKNTLYLQMNSLRTEDTAVYYCIPSGSYYGYWGQGTLVTVSS VL: not shown	52.4	14	no binding	0.264	6.23e-05	236000	186	0					no binding (tested: 25 and 100 nM antigen injected)

Second part, led by results:

Block (%), calcium flux, hPROKR1 + PK1 (20 nM hPK1) (human PROKR1) [%]	IC50 (nM), inhibition of calcium flux, hPROKR1 + PK1 (20 nM hPK1) (human PROKR1) [nM]	binding result (human PROKR2)	Kd (human PROKR1 (1-62)-hFc) [nM]	koff (human PROKR1 (1-62)-hFc) [s⁻¹]	kon (human PROKR1 (1-62)-hFc) [M⁻¹ s⁻¹]	t½ (human PROKR1 (1-62)-hFc) [min]	Block (%), calcium flux, mPROKR1 + PK1 (1 nM hPK1) (mouse PROKR1) [%]	Kd (human PROKR2(1-53)-hFc [2]) [nM]	koff (human PROKR2(1-53)-hFc [2]) [s⁻¹]	kon (human PROKR2(1-53)-hFc [2]) [M⁻¹ s⁻¹]	t½ (human PROKR2(1-53)-hFc [2]) [min]	Binder	binding result (human PROKR2(1-53)-hFc [1])
45	14.5	no binding	1.83	0.000362	198000	32	0					H4H6671P (antibody, human IgG4, V domains shown) VH: EVQLVESGGGLVKPGGSLRLSCAASGFTFSNAWMSWVRQAPGKGLEWVGRIKSRSDGGTTDYAAPVKGRFTISRDDSKNTLYLQMNSLKTEDTALYYCSPPGSHYGYWGQGTLVTVSS VL: not shown	no binding (tested: 25 and 100 nM antigen injected)
51	16.4		0.197	4.55e-05	231000	254	0	4.23	0.000253	59900	46	H4H6680P (antibody, human IgG4, V domains shown) VH: EVQLVESGGGLVKPGGSLRLSCAVSGFTFSNAWMTWVRQTPGKGLEWVGRIKRKNEGGTIDYAAPVKGRFTISRDDSKNTLYLQMNSLKTEDTAVYYCTPSGSYYGYWGQGTLVTVSS VL: not shown	
